For assay [1], the target named is HIV-1 reverse transcriptase p66 subunit (immature RT precursor) (human immunodeficiency virus type 1 (HIV-1)). The experiment in a line: SEC-MALS. A general note: Size exclusion chromatography separates by hydrodynamic size, large species first.
The target of assay [2] is HIV-1 reverse transcriptase p51 subunit (residues 1-440) (human immunodeficiency virus type 1 (HIV-1)). Description: SEC-MALS.

The record followed here is article PMC4441793.

On to “HIV-1 reverse transcriptase p66 subunit (immature RT precursor) (enzyme)”, for which the stoichiometry N – broadly, the number of molecules, sites or subunits per partner or assembly – in assay [1] came to 2.

Regarding “HIV-1 reverse transcriptase p51 subunit (residues 1-440) (domain or fragment)”, in assay [2], the percent dimer in the NMR sample is below 60% and the stoichiometry N stood at 2.
